In the supplement of paper PMC7877785:
± gives the uncertainty stated by the source.

Experiment: self-splicing fitness, log relative to wild type (ln ratio); higher = more splicing; Tetrahymena group I intron in knt gene, E. coli kanamycin selection, DiMSum; sequences stand for … in CUCUCU…GGAGGGAAAAGUUAUCAGGCAUGCACCUGGUAGCUAGUCUUUAAACCAAUAGAUUGCAUCGGUUUAAAAGGCAAGACCGUCAAAUUGCGGGAAAGGGGUCAACAGCCGUUCAGUACCAAGUCUCAGGGGAAACUUUGAGAUGGCCUUGCAAAGGGUAUGGUAAUAAGCUGACGGACAUGGUCCUAACCACGCAGCCAAGUCCUAAGUCAACAGAUCUUCUGUUGAUAUGGAUGCAGUUCACAGACUAAAUGUCGGUCGGGGAAGAUGUAUUCUUCUCAUAAGAUAUAGUCGGACCUCUCCUUAAUGGGAGCUAGCGGAUGAAGUGAUGCAACACUGGAGCCGCUGGGAACUAAUUUGUAUGCGAAAGUAUAUUGAUUAGUUUUGGAGUACUCGUGGUCG
Method in brief: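 The eight P1ex-region nucleotides of an intron in the knt kanamycin-resistance gene on pET-22b(+) were all randomised and the library put into E. coli BL21(DE3). Six replicate transformations were grown overnight at 37°C or 30°C on LB agar with or without 25 μg/mL kanamycin, together with 100 μg/mL carbenicillin, 50 μM IPTG and 0.2% rhamnose. Colonies were pooled and amplicon-sequenced on an Illumina HiSeq 2500. Fitness from DiMSum is the error-weighted combination of wild-type-normalised replicate fold changes, kanamycin over none.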

Sequence	self-splicing fitness (ln) (30 °C)	self-splicing fitness (ln) (37 °C)
CCUAAGCAAUAUUACGUAAC	-2.97 ± 0.17	-1.77 ± 0.29
GACGAGCAAUAUUACGACGC	-0.758 ± 0.13	-0.747 ± 0.15
AUGCAGCAAUAUUACGGCUG	-2.78 ± 0.15	-1.68 ± 0.23
AGCAAGCAAUAUUACGCAUG	-3.32 ± 0.16	-2.74 ± 0.2
AUGGAGCAAUAUUACGGCGG	-3.85 ± 0.37	-1.82 ± 0.34
UAUAAGCAAUAUUACGUCUC	–	-2.22 ± 0.35
UCAAAGCAAUAUUACGUACC	-3.01 ± 0.3	-1.69 ± 0.3
CUAAAGCAAUAUUACGGGAC	-2.11 ± 0.13	-0.677 ± 0.13
UGUAAGCAAUAUUACGUGAC	-3.47 ± 0.33	-1.77 ± 0.23
CGACAGCAAUAUUACGACAA	-2.08 ± 0.13	-1.27 ± 0.13
AGCCAGCAAUAUUACGUGCC	-2.96 ± 0.15	-1.98 ± 0.14
CAUAAGCAAUAUUACGGGCG	-0.054 ± 0.08	0.166 ± 0.092
ACCUAGCAAUAUUACGGUGA	-1.86 ± 0.079	-0.814 ± 0.074
CUGAAGCAAUAUUACGUAGG	-3.21 ± 0.18	-2.36 ± 0.25
CUGUAGCAAUAUUACGAGAC	-2.77 ± 0.2	-0.769 ± 0.14
CAUCAGCAAUAUUACGAGCC	-3.22 ± 0.31	-2.33 ± 0.41
GAGAAGCAAUAUUACGGAGA	-3.8 ± 0.24	-2.04 ± 0.28
GGAGAGCAAUAUUACGUCGA	-2.7 ± 0.32	-1.53 ± 0.26
UUAAAGCAAUAUUACGCCCG	-0.0363 ± 0.09	0.273 ± 0.11

Sequence	self-splicing fitness (ln) (30 °C)	self-splicing fitness (ln) (37 °C)
UCAGAGCAAUAUUACGAUAG	-4.05 ± 0.39	-2.38 ± 0.39
GUUGAGCAAUAUUACGUCGG	-3.61 ± 0.39	-1.61 ± 0.27
GGCGAGCAAUAUUACGACAC	-1.12 ± 0.19	-0.253 ± 0.26
AAUGAGCAAUAUUACGCAUG	-2.58 ± 0.17	-0.519 ± 0.12
AAAUAGCAAUAUUACGCCGU	-1.37 ± 0.21	0.028 ± 0.18
UACCAGCAAUAUUACGCCCA	-0.817 ± 0.1	-0.342 ± 0.14
CUCCAGCAAUAUUACGGCGG	-4.65 ± 0.28	-3.1 ± 0.22
GGUAAGCAAUAUUACGCAGG	-2.05 ± 0.16	-1.29 ± 0.15
CAGCAGCAAUAUUACGGACU	-2.43 ± 0.21	-1.41 ± 0.13
UUGUAGCAAUAUUACGCGUU	-2.56 ± 0.23	-1.64 ± 0.33
CCACAGCAAUAUUACGCGGU	-3.46 ± 0.17	-1.94 ± 0.15
GCGAAGCAAUAUUACGGCGA	-0.0437 ± 0.14	0.0298 ± 0.15
AGUUAGCAAUAUUACGCCAU	-3.41 ± 0.21	-1.53 ± 0.14
GUACAGCAAUAUUACGCUCU	-0.911 ± 0.091	-0.379 ± 0.11
AAAAAGCAAUAUUACGUAUA	-2.14 ± 0.14	-1.5 ± 0.15
GUGCAGCAAUAUUACGUAGG	-1.28 ± 0.11	-1.05 ± 0.16
AUUUAGCAAUAUUACGGGUC	–	-2.23 ± 0.34
CGGAAGCAAUAUUACGGAUA	-3.36 ± 0.41	-1.81 ± 0.18
AUUCAGCAAUAUUACGUAUC	-3.62 ± 0.26	-1.04 ± 0.16
